{
  "source": "patent US20030092616A1",
  "about": "“STAT6 activation gene” (priority 2001, published 2003)",
  "molecules": {"B1": {"name": "275 (nucleic acid, listed as Homo sapiens)", "chain": "GCAGACCCCCATCATGGGCAGCCAGAGCTCCAAGGCTCCCCGGGGCGACGTGACCGCCGAGGAGGCAGCAGGCGCTTCCCCCGCGAAGGCCAACGGCCAGGAGAATGGCCACGTGAAAAGCAATGGAGACTTATCCCCCAAGGGTGAAGGGGAGTCGCCCCCTGTGAACGGAACAGATGAGGCAGCCGGGGCCACTGGCGATGCCATCGAGCCAGCACCCCCTAGCCAGGGTGCTGAGGCCAAGGGGGAGGTCCCCCCCAAGGAGACCCCCAAGAAGAAGAAGAAATTCTCTTTCAAGAAGCCTTTCAAATTGAGCGGCCTGTCCTTCAAGAGAAATCGGAAGGAGGGTGGGGGTGATTCTTCTGCCTCCTCACCCACAGAGGAAGAGCAGGAGCAGGGGGAGATCGGTGCCTGCAGCGACGAGGGCACTGCTCAGGAAGGGAAGGCCGCAGCCACCCCTGAGAGCCAGGAACCCCAGGCCAAGGGGGCAGAGGCTAGTGCAGCCTCAGAAGAAGAGGCAGGGCCCCAGGCTACAGAGCCATCCACTCCCTCGGGGCCGGAGAGTGGCCCTACACCAGCCAGCGCTGAGCAGAATGAGTAGCTAGGTAGGGGCAGGTGGGTGATCTCTAAGCTGCAAAAACTGTGCTGTCCTTGTGAGGTCACTGCCTGGACCTGGTGCCCTGGCTGCCTTCCTGTGCCCAGAAAGGAAGGGGCTATTGCCTCCTCCCAGCCACGTTCCCTTTCCTCCTCTCCCTCCTGTGGATTCTCCCATCAGCCATCTGGTTCTCCTCTTAAGGCCAGTTGAAGATGGTCCCTTACAGCTTCCCAAGTTAGGTTAGTGATGTGAAATGCTCCTGTCCCTGGCCCTACCTCCTTCCCTGTCCCCACCCCTGCATAAGGCAGTTGTTGGTTTTCTTCCCCAATTCTTTTCCAAGTAGGTTTTGTTTACCCTACTCCCCAAATCCCTGAGCCAGAAGTGGGGTGCTTATACTCCCAAACCTTGAGTGTCCAGCCTTCCCCTGTTGTTTTTAGTCTCTTGTGCTGTGCCTAGTGGCACCTGGGCTGGGGAGGACACTGCCCCGTCTAGGTTTTTATAAATGTCTTACTCAAGTTCAAACCTCCAGCCTGTGAATCAACTGTGTCTCTTTTTTGACTTGGTAAGCAAGTATTAGGCTTTGGGGTGGGGGGAGGTCTGTAATGTGAAACAACTTCTTGTCTTTTTTTCTCCCACTGTTGTAAATAACTTTTAATGGCCAAACCCCAGATTTGTACTTTTTTTTTTTTTCTAACTGCTAAAACCATTCTCTTCCACCTGGTTTTACTGTAACATTTGG", "modifications": "CDS (14)..(598)"}, "B2": {"name": "69 (nucleic acid, listed as Homo sapiens)", "chain": "AGTGTTTGGGTTTCTTCGCGGCTGCTCAAGATGAACCGACTCTTCGGGAAAGCGAAACCCAAGGCTCCGCCGCCCAGCCTGACTGACTGCATTGGCACGGTGGACAGTAGAGCAGAATCCATTGACAAGAAGATTTCTCGATTGGATGCTGAGCTAGTGAAGTATAAGGATCAGATCAAGAAGATGAGAGAGGGTCCTGCAAAGAATATGGTCAAGCAGAAAGCCTTGCGAGTTTTAAAGCAAAAGAGGATGTATGAGCAGCAGCGGGACAATCTTGCCCAACAGTCATTCAACATGGAACAAGCCAATTATACCATCCAGTCTTTGAAGGACACCAAGACCACGGTTGATGCTATGAAACTGGGAGTAAAGGAAATGAAGAAGGCATACAAGCAAGTGAAGATCGACCAGATTGAGGATTTACAAGACCAGCTAGAGGATATGATGGAAGATGCAAATGAAATCCAAGAAGCACTGAGTCGCAGTTATGGCACCCCAGAACTGGATGAAGATGATTTAGAAGCAGAGTTGGATGCACTAGGTGATGAGCTTCTGGCTGATGAAGACAGTTCTTATTTGGATGAGGCAGCATCTGCACCTGCAATTCCAGAAGGTGTTCCCACTGATACAAAAAACAAGGATGGAGTTCTGGTGGATGAATTTGGATTGCCACAGATCCCTGCTTCATAGATTTGCATCATTCAAGCATATCTTGTAAAACAAACACATATTATGGGACTAGGAAATATTTATCTTTCCAAATTTGCCATAACAGATTTAGGTTTCTTTCCTTTCTTTGAAGGAAAGTTTAATTACATTGCTCTTTTATTTTTTCCATTAAGAGACTCATTGCTTGGGAAATGCTTTCTTCGTACTAAAATTTGATTCCTTTTTTTCTTATGAAAAACGAACTCAGTTTAAAAGTATTTTTAGCTCGTATGACTTGTTTTCATTCATTAATAATAATTTGAAATAAAACTAAGGAAATGGAATCTTAAAAGTCTATGACAGTGTAACTCTACAGTCTCAAAATGACCTGATAAATTGATAAGACAAAGATGAGATTATTGGGGCTGTTCATATTATGATTCAGAATCATTTTCTATTGTGGTATTATAGGTTGGTTAAAGTGATGGCCTTTTTGATGGGTTTTGTTGTGTCTTGTGAACAAGTCGTTACTGTGTCCATTATTGGAATGGAATTATCACTACTGTATCATGAGTGGGTATTTTGATTCTATGGTTCCCTCAGTATTACATCTTGACTTGTAATCAATTATGAATATTTCTTGATATTTAATGTATAGGACATTTATTTATACTCAATAAATATTTTTCAAAAGG", "modifications": "CDS (31)..(687)"}, "B3": {"name": "261 (nucleic acid, listed as Homo sapiens)", "chain": "AGTGCGCGAAGATGCGAAAGGTGGTTTTGATCACCGGGGCTAGCAGTGGCATTGGCCTGGCCCTCTGCAAGCGGCTGCTGGCGGAAGATGATGAGCTTCATCTGTGTTTGGCGTGCAGGAACATGAGCAAGGCAGAAGCTGTCTGTGCTGCTCTGCTGGCCTCTCACCCCACTGCTGAGGTCACCATTGTCCAGGTGGATGTCAGCAACCTGCAGTCGGTCTTCCGGGCCTCCAAGGAACTTAAGCAAAGGTTTCAGAGATTAGACTGTATATATCTAAATGCTGGGATCATGCCTAATCCACAACTAAATATCAAAGCACTTTTCTTTGGCCTCTTTTCAAGAAAAGTGATTCATATGTTCTCCACAGCTGAAGGCCTGCTGACCCAGGGTGATAAGATCACTGCTGATGGACTTCAGGAGGTGTTTGAGACCAATGTCTTTGGCCATTTTATCCTGATTCGGGAACTGGAGCCTCTCCTCTGTCACAGTGACAATCCATCTCAGCTCATCTGGACATCATCTCGCAGTGCAAGGAAATCTAATTTCAGCCTCGAGGACTTCCAGCACAGCAAAGGCAAGGAACCCTACAGCTCTTCCAAATATGCCACTGACCTTTTGAGTGTGGCTTTGAACAGGAACTTCAACCAGCAGGGTCTCTATTCCAATGTGGCCTGTCCAGGTACAGCATTGACCAATTTGACATATGGAATTCTGCCTCCGTTTATATGGACGCTGTTGATGCCGGCAATATTGCTACTTCGCTTTTTTGCAAATGCATTCACTTTGACACCATATAATGGAACAGAAGCTCTGGTATGGCTTTTCCACCAAAAGCCTGAATCTCTCAATCCTCTGATCAAATATCTGAGTGCCACCACTGGCTTTGGAAGAAATTATATTATGACCCAGAAGATGGACCTAGATGAAGACACTGCTGAAAAATTTTATCAAAAGTTACTGGAACTGGAAAAGCACATTAGGGTCACTATTCAAAAAACAGATAATCAGGCCAGGCTCAGTGGCTCATGCCTATAATTCCAGCACTTTGGGAGGCCAAGGCAGAAGGATCACTTGAGACCAGGAGTTCAAGACCAGCCTGAGAAACATAGTGAGCCCTTGTCTCTACAAAAAGAAATAAAAATAATAGCTGGGTGTGGTGGCATGCGCATGTAGTCCCAGCTACTCAGAAGGATGAGGTGGGAGGATCTCTTGAGGCTGGGAGGCAGAGGTTGCAGTGAGCTGAGATTGTGCCACTGCACTCCAGCCTGGGTGACAGCGAGACCCTGTCTCAAAATATGTATATATTTAATATATATATAAAACCAGAGCTGACAATGACACTCTGGAACATTGCATACCTTCTGTACATTCTGGGGTACATGGATTTCTACTGAGTTGGATAATATGCATTTGTAATAAACTATGAACTATG", "modifications": "CDS (12)..(1034)"}},
  "data": [
    {"tested_on": "STAT6", "test": "Screening of full-length cDNA clones for promotion of STAT6 activation (luciferase reporter N4×8-luc)", "format": "cell-based", "conditions": "NIH3T3 cells cotransfected with N4×8-luc reporter and cDNA plasmid; 48 h culture, then mouse IL-4 0.5 ng/ml for 6 h", "description": "As a preferable method, NIH3T3 cells are inoculated on 10% FBS (Fetal Bovine Serum)-containing IMDM medium in a 96-well cell culture plate to a final cell density of 1×10^4 cells/well, and cultured for 24 hours at 37° C., in the presence of 5% CO2. Then, the luciferase reporter plasmid N4×8-luc which has a STAT6 response sequence, and the expression vector are cotransfected into the cells in a well using FuGENE 6 (Roche). After 48 hours of culture at 37° C., in the presence of 5% CO2 mouse IL-4 (Immuno Biological Laboratories Co., Ltd.) is added to a final concentration of 0.5 ng/ml. After culturing for further 6 hours, promoting activity for STAT6 activation is then measured by measuring luciferase activity using a long term luciferase assay system, Picagene LT2.0 (Toyo Ink Mfg). For example, luciferase activity can be measured using PerkinElmer's Wallac ARVOTMST 1420 MULTILABEL COUNTER. The method for gene introduction by FuGENE6, and measurement of luciferase activity by Picagene LT2.0 can be performed respectively according to the attached protocols. In a method of gene introduction with a 96-well plate using FuGENE6, the amount of FuGENE6 per 1 well is suitably 0.3 to 0.5 μl, preferably 0.3 μl; the amount of N4×8-luc reporter plasmid is suitably 50 to 100 ng, preferably 100 ng; and the amount of expression vector is suitably 50 to 100 ng, preferably 100 ng. An ability (action) to promote STAT6 activation refers to an ability to increase the reporter activity (luciferase activity) relative to the control experiment (for cells into which the reporter gene and a null vector were introduced). Increase in reporter activity is preferably by a factor of 1.5 or more, more preferably by a factor of 3 or more, and still more preferably by a factor of 6 or more.\nNIH3T3 cells (purchased from Dainippon Pharmaceutical) were grown to 1×10^4 cells/well in a 96 well plate for cell culture for 24 hours at 37° C. (in the presence of 5% CO2) using 10% FBS containing IMDM medium. Then, 100 ng of luciferase reporter plasmid N4×8-luc having a STAT6 response sequence and 2 μl of the full-length cDNA prepared in above Example 1.(3) were cotransfected into the cells in a well using FuGENE 6 (purchased from Roche) according to the manufacturer's protocol. The luciferase reporter plasmid N4×8-luc having the STAT6 response sequence was constructed as follows. […] 157, 2058-2065 (1996)], oligonucleotides having the following sequences were synthesized:\nThe synthesized oligonucleotides were dissolved in sterile water to be 1μg/μl, respectively, mixed in 10 μl lots, and adjusted the volume to 32 μl with sterile water. The solution was heated for 5 min at 90° C., and gradually cooled down to room temperature to prepare a double-stranded oligonucleotide solution. The solution was reacted with T4 polynucleotide kinase (Takara Shuzo) according to the attached manual, then the reaction product was purified in a usual manner. Separately, SV40 promoter region of pGL3-Promoter vector (Promega) was replaced by the HSV thymidine kinase promoter sequence (from −50 to +10) with Hind III site and BglII site to construct a vector tk-luc. The aforesaid double-stranded oligonucleotide fragments were inserted into the XhoI site of this tk-luc vector using T4 DNA ligase (GIBCO/BRL). The obtained clones were sequenced according to a usual method, and clones in which plural oligonucleotide fragments were inserted were selected. […] The four-interlinked DNA fragments were excised from the N4×4-luc with a XhoI and a BglII site and purified to be inserted into a BamHI and a XhoI site of pBluescript II KS+ (Stratagene). The four-interlinked DNA fragments were excised from this plasmid with KpnI and SpeI and inserted into a KpnI and a NheI site of N4×4-luc plasmid to finally obtain N4×8-luc.", "values": [
      {"molecule": "B1", "Activity = (luciferase activity of the gene of each SEQ ID NO:)/(luciferase activity of pME18S-FL3)": 17.0},
      {"molecule": "B2", "Activity = (luciferase activity of the gene of each SEQ ID NO:)/(luciferase activity of pME18S-FL3)": 11.7},
      {"molecule": "B3", "Activity = (luciferase activity of the gene of each SEQ ID NO:)/(luciferase activity of pME18S-FL3)": 14.7}
    ]}
  ]
}
